Assay results from patent US20100184701A1 (TREVENA, published 2010).
Non-standard residues stand in square brackets, D forms with d. No end group written: not given here. Sar = CNCC(=O)O

T1: human angiotensin 2 type 1 receptor (human, UniProt P30556 1-359)
T1 sequence (looked up): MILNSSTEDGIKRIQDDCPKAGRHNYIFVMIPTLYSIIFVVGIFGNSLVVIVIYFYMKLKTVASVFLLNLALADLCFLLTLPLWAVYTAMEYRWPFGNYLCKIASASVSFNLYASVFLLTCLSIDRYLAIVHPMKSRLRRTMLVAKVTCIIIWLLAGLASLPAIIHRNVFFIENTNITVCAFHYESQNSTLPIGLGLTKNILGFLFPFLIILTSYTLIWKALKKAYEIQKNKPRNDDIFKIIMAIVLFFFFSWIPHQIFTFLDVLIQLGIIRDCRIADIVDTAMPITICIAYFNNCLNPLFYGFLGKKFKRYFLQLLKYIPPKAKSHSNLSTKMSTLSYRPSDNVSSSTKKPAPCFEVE

T2: rat angiotensin 2 type 1 receptor (rat, UniProt P25095 1-359)
T2 sequence (looked up): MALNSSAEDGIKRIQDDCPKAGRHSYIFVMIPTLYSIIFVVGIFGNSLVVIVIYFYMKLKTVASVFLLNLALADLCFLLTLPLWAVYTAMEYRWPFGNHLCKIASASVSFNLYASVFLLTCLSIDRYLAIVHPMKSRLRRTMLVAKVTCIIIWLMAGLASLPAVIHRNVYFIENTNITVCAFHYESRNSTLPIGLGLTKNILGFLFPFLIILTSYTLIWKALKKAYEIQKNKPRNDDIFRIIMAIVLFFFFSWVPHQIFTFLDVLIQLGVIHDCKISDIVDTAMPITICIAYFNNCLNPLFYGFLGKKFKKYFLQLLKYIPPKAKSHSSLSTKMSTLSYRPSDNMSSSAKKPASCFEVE

B1: SEQ ID NO: 43 (peptide)
peptide: [Sar]RVYKHP-NH2
modifications: N-terminus assumed
SMILES: CNCC(=O)N[C@@H](CCCNC(=N)N)C(=O)N[C@H](C(=O)N[C@@H](Cc1ccc(O)cc1)C(=O)N[C@@H](CCCCN)C(=O)N[C@@H](Cc1c[nH]cn1)C(=O)N1CCC[C@H]1C(N)=O)C(C)C
B2: SEQ ID NO: 45 (peptide)
peptide: [Sar]RVYRHP-NH2
modifications: N-terminus assumed
SMILES: CNCC(=O)N[C@@H](CCCNC(=N)N)C(=O)N[C@H](C(=O)N[C@@H](Cc1ccc(O)cc1)C(=O)N[C@@H](CCCNC(=N)N)C(=O)N[C@@H](Cc1c[nH]cn1)C(=O)N1CCC[C@H]1C(N)=O)C(C)C
B3: SEQ ID NO: 49 (peptide)
peptide: [Sar]KVYIHP[dA]-OH
modifications: N-terminus assumed
SMILES: CC[C@H](C)[C@H](NC(=O)[C@H](Cc1ccc(O)cc1)NC(=O)[C@@H](NC(=O)[C@H](CCCCN)NC(=O)CNC)C(C)C)C(=O)N[C@@H](Cc1c[nH]cn1)C(=O)N1CCC[C@H]1C(=O)N[C@H](C)C(=O)O
B4: SEQ ID NO: 55 (peptide)
peptide: [Sar]RVYVH-NH2
modifications: N-terminus assumed
SMILES: CNCC(=O)N[C@@H](CCCNC(=N)N)C(=O)N[C@H](C(=O)N[C@@H](Cc1ccc(O)cc1)C(=O)N[C@H](C(=O)N[C@@H](Cc1c[nH]cn1)C(N)=O)C(C)C)C(C)C
B5: SEQ ID NO: 53 (peptide)
peptide: [Sar]RVY[dA]HP-NH2
modifications: N-terminus assumed
SMILES: CNCC(=O)N[C@@H](CCCNC(=N)N)C(=O)N[C@H](C(=O)N[C@@H](Cc1ccc(O)cc1)C(=O)N[C@H](C)C(=O)N[C@@H](Cc1c[nH]cn1)C(=O)N1CCC[C@H]1C(N)=O)C(C)C
B6: SEQ ID NO: 50 (peptide)
peptide: [Sar]RVYIKP[dA]-OH
modifications: N-terminus assumed
SMILES: CC[C@H](C)[C@H](NC(=O)[C@H](Cc1ccc(O)cc1)NC(=O)[C@@H](NC(=O)[C@H](CCCNC(=N)N)NC(=O)CNC)C(C)C)C(=O)N[C@@H](CCCCN)C(=O)N1CCC[C@H]1C(=O)N[C@H](C)C(=O)O

Key:
[1] = biological target: T1, human angiotensin 2 type 1 receptor; test: cell-based or functional assay
[2] = biological target: T2, rat angiotensin 2 type 1 receptor; test: cell-based or functional assay

Binder | b-arrestin2 EC50 [1] [nM] | b-arrestin2 Max (%) [1] [%] | IP One EC50 [2] [nM] | IP One Max (%) [2] [%] | b-arrestin2 EC50 [2] [nM] | b-arrestin2 Max (%) [2] [%] | IP One EC50 (M) [1] [M] | IP One EC50 (M) [2] [M] | IP One EC50 [1] [nM] | IP One Max (%) [1] [%]
XRVYYHP (Sar (sarcosine) at 1) [SEQ ID NO: 52] | 1400 | 45.9 | 300 | 8 | 440 | 83.8 |  |  |  | 
XRVFIHPA (Sar (sarcosine) at 1; D-Ala at 8) [SEQ ID NO: 48] | 1800 | 48.1 |  | 13.9 |  | 42.1 | > 1e-05 |  |  | 
DRVYFHP (N-Me-Asp (N-methyl-L-aspartic acid) at 1; C-terminal amide (NH2)) [SEQ ID NO: 65] |  | 37.8 |  |  |  | 67.3 | > 1e-05 | > 1e-05 |  | 
ARVYIHPA (NM-D-Ala (N-methyl-D-alanine) at 1; D-Ala at 8) [SEQ ID NO: 82] |  | 38.3 |  |  |  | 60.6 | > 1e-05 | > 1e-05 |  | 
B1 | 2100 | 42.7 | 260 | 17.9 | 910 | 64.8 | > 1e-05 |  |  | 
B2 | 30 | 53.3 | 26 | 10.2 | 27 | 91.7 | > 1e-05 |  |  | 
ERVYYHP (D-Glu at 1; C-terminal amide (NH2)) [SEQ ID NO: 60] |  | 44 |  |  | 180 | 79.3 | > 1e-05 | > 1e-05 |  | 
DRVYFHP (C-terminal amide (NH2)) [SEQ ID NO: 63] |  | 35.9 |  |  |  | 50.1 | > 1e-05 | > 1e-05 |  | 
B3 | 1000 | 72.7 |  |  | 630 | 52.9 | > 1e-05 | > 1e-05 |  | 
ARVYIHPA (NMAla (N-methyl-L-alanine) at 1; D-Ala at 8) [SEQ ID NO: 46] |  |  |  |  | 63 |  | > 1e-05 | > 1e-05 |  | 
ARVYIHPA (NM-D-Ala (N-methyl-D-alanine) at 1) [SEQ ID NO: 47] | 4800 | 80.5 |  |  | 2100 | 72.2 | > 1e-05 | > 1e-05 |  | 
DRVYYHP (N-Me-Asp (N-methyl-L-aspartic acid) at 1; C-terminal amide (NH2)) [SEQ ID NO: 61] | 1200 | 37.5 |  |  | 2100 | 60.4 | > 1e-05 | > 1e-05 |  | 
XRVYVHP (Sar (sarcosine) at 1) [SEQ ID NO: 54] | 42 | 58.6 |  |  | 17 | 83 | > 1e-05 | > 1e-05 |  | 
RVYIHP (C-terminal amide (NH2)) [SEQ ID NO: 13] |  | 43.4 |  |  |  | 165 | > 1e-05 | > 1e-05 |  | 
B4 | 220 | 92.7 | 6.8 | 98.8 | 42 | 95.6 |  |  | 96 | 97.6
DRVYYHP (C-terminal amide (NH2)) [SEQ ID NO: 57] |  | 42.1 |  | 35.3 |  | 64.4 |  |  |  | 10
ERVYYHP (N-Me-Glu (N-methyl-L-glutamic acid) at 1; C-terminal amide (NH2)) [SEQ ID NO: 62] |  | 24.7 |  |  |  | 44.2 | > 1e-05 | > 1e-05 |  | 
DRVYIHPG-OH [SEQ ID NO: 56] | 550 | 104 | 20 | 98.4 | 160 | 98.5 |  |  | 660 | 96.5
ERVYYHP (C-terminal amide (NH2)) [SEQ ID NO: 59] | 1400 | 19.5 |  |  |  | 27.8 | > 1e-05 | > 1e-05 |  | 
B5 | 1600 | 33.6 |  |  | 420 | 12.2 | > 1e-05 | > 1e-05 |  | 
ERVYFHP (C-terminal amide (NH2)) [SEQ ID NO: 64] | 1200 | 20.4 |  |  |  | 26.9 | > 1e-05 | > 1e-05 |  | 
XRVYIHP (Sar (sarcosine) at 1; D-Pro at 7; C-terminal amide (NH2)) [SEQ ID NO: 51] | 330 | 20.2 |  |  | 110 | 5.8 | > 1e-05 | > 1e-05 |  | 
ARVYIHPA (NMAla (N-methyl-L-alanine) at 1; D-Ala at 8) [SEQ ID NO: 44] |  |  | 8.2 | 14.6 |  |  | > 1e-05 |  |  | 
ERVYFHP (N-Me-Glu (N-methyl-L-glutamic acid) at 1; C-terminal amide (NH2)) [SEQ ID NO: 66] |  | 30.6 |  |  | 10000 | 58.5 | > 1e-05 | > 1e-05 |  | 
DRVYYHP (D-Asp at 1; C-terminal amide (NH2)) [SEQ ID NO: 58] | 330 | 48.7 |  | 9.94 | 260 | 81.1 | > 1e-05 |  |  | 
B6 | 680 | 56.8 |  |  | 270 | 85.6 | > 1e-05 | > 1e-05 |  | 
